Numbering of substitutions follows the chain as printed. In names and notes the source's numbering stands. Values belong to the binder of their own block, whether it stands above or below them.
Legend:
[1] = biological target: T1, murine CD16-2 (Sino Biological Inc., 50036-M27H-B) (murine, UniProt A0A0B4J1G0 21-203, Probably biotinylated on a vendor tag (suffix -B); not given); assay: ELISA on murine CD16-2, similar procedure to the hCD16a ELISA
T1 construct: Bought reagent, used in 'a similar experimental procedure' to the hCD16a ELISA; also called mCD16-2
T1 sequence: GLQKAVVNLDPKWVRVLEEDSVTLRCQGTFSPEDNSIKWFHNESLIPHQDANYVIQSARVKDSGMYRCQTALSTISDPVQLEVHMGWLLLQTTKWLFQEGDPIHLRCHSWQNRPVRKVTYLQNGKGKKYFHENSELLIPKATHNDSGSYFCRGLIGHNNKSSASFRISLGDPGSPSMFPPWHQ
Description: (§1) Specifically, a Maxisorp plate was coated with 100 ng/well of Neutravidin Biotin-binding Protein (ThermoScientific, 31000) and incubated overnight at 4° C. The following day, the plate was blocked with PBS+1% casein for 2 hours at room temperature. […] Binding to hCD16a was detected using an HRP-conjugated polyclonal goat anti-human Fc antibody (Jackson ImmunoResearch, 109-035-008) (incubation 1 hour at RT, dilution 1/50,000 in PBS+0.1% casein), followed by addition of […] room temperature-equilibrated TMB (SDT-reagents #s TMB). Plates were incubated for 10 minutes prior to addition of 100 μl 0.5N H₂SO₄ and OD450 nm measurement. EC50 values were determined using GraphPad Prism software.
Using a similar experimental procedure as described above, the binding affinity for murine CD16-2 (Sino Biological Inc., 50036-M27H-B) was determined.

[2] = biological target: T2, biotinylated hCD16a (Sino Biological Inc., 10389-H27H1-B) (human, UniProt P08637 17-208, biotinylated); assay: ELISA on biotinylated hCD16a captured on neutravidin; anti-human Fc-HRP detection
T2 construct: Bought reagent, captured on a neutravidin-coated plate; also called human CD16a
Description: as §1

T2 sequence (P08637 17-208 limits assumed): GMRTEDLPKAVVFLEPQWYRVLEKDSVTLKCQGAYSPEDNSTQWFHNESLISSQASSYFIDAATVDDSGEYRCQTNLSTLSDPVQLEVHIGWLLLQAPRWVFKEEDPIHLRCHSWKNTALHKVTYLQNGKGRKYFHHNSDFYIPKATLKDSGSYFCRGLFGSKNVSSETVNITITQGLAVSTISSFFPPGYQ

EC50 [1]: 11 nM
EC50 [2]: 13 nM
fold increase in affinity over fucosylated Fc-Abdeg [2]: > 30 fold
B1: Fc-Abdeg-POT (other)
chain: DKTHTCPPCPAPELLGGPSVFLFPPKPKDTLYITREPEVTCVVVDVSHEDPEVKFNWYVDGVEVHNAKTKPREEQYNSTYRVVSVLTVLHQDWLNGKEYKCKVSNKALPAPIEKTISKAKGQPREPQVYTLPPSRDELTKNQVSLTCLVKGFYPSDIAVEWESNGQPENNYKTTPPVLDSDGSFFLYSKLTVDKSRWQQGNVFSCSVMHEALKFHYTQKSLSLSPGK
modifications: afucosylated N-linked glycan (afucosylated form of Fc-Abdeg)
notes: also called afucosylated form of Fc-Abdeg; afucosylated variant

EC50 [2]: 6 nM
B2: Fc-Abdeg-S239D/I332E (other)
chain: B1 chain with S19D, I112E
notes: Fc-Abdeg variant
